From paper PMC6255772

Tests used:
[1] = biological target: recombinant human IGF-2 (human); experiment: SPR; competition with immobilized MEDI-573; details: Fc fusion
[2] = biological target: IGF-TRAP-3.1 (human) (UniProt P08069); experiment: SPR; BioRad ProteOn, GLC chip; about 1200 RU IGF-TRAP captured on immobilised goat anti-human Fc antibody; ligands 320-3.95 nM injected in triplicates, 120 s association, 600 s dissociation; PBST, 25 °C; 1:1 binding model
[3] = biological target: IGF-TRAP-3.3 (human) (UniProt P08069); experiment: as above

Substance	IC50 [1] [nM]	fold lower affinity than for the IGF ligands [2] [fold]	fold lower affinity than for the IGF ligands [3] [fold]
IGF-TRAP-3.3 (from UniProt P08069 31-736; P08069 741-935; P01857 1-328)	6.44		
human insulin (ligand)		1000	1000
